Assay results from article doi:10.1101/2025.05.23.655736 (bioRxiv, 2025).

Biological target: T1, CHAP domain of Streptococcus pneumoniae PcsB (residues A274-D392) (Streptococcus pneumoniae, UniProt Q8DMY4 274-392)
T1 sequence (looked up): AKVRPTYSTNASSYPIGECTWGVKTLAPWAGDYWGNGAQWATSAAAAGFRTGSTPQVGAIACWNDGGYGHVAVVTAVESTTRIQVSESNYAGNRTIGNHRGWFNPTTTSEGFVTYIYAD
Assay: SPR

B1: synthetic pneumococcal stem pentapeptide L-Ala-D-isoGln-L-Lys-D-Ala-D-Ala (peptide)
peptide: AQKAA
modifications: D-isoglutamine at position 2 (iQ); D-alanine at positions 4 and 5
fold change of KD against AEKADAD: ~15 fold
